Test results: patent publication US20050158748

Experiments:
[1] = biological target: synthetic peptide representing C-terminus of S6 protein
[2] = biological target: ribosomal protein S6 (in purified 40S ribosomal subunits from liver)

B1: EE-tag/p70β^S6k (p70β-II isoform, N-terminal EE-tag) (protein)
chain: MAAVFDLDLETEEGSEGEGEPELSPADACPLAELRAAGLEPVGHYEEVELTETSVNVGPERIGPHCFELLRVLGKGGYGKVFQVRKVQGTNLGKIYAMKVLRKAKIVRNAKDTAHTRAERNILESVKHPFIVELAYAFQTGGKLYLILECLSGGELFTHLEREGIFLEDTACFYLAEITLALGHLHSQGIIYRDLKPENIMLSSQGHIKLTDFGLCKESIHEGAVTHTFCGTIEYMAPEILVRSGHNRAVDWWSLGALMYDMLTGSPPFTAENRKKTMDKIIRGKLALPPYLTPDARDLVKKFLKRNPSQRIGGGPGDAADVQRHPFFRHMNWDDLLAWRVDPPFRPCLQSEEDVSQFDTRFTRQTPVDSPDDTALSESANQAFLGFTYVAPSVLDSIKEGFSFQPKLRSPRRLNSSPRVPVSPLKFSPFEGFRPSPSLPEPTELPLPPLLPPPPPSTTAPLPIRPPSGTKKSKRGRGRPGR
[1]
  in vitro kinase reaction: phosphorylation of the synthetic peptide: p70β^S6k (p70β-II isoform) also phosphorylates this peptide but with slightly lower efficiency than observed with p70α^S6k
[2]
  in vitro kinase reaction: phosphorylation of S6 protein in 40S subunits: p70β^S6k (p70β-II isoform) phosphorylates the S6 protein in vitro nearly as efficiently as p70α^S6k
